Laboratory results from the supplement of paper PMC7877785.
± gives the uncertainty stated by the source.

Assay: self-splicing fitness, log relative to wild type (ln ratio); higher = more splicing; Tetrahymena group I intron in knt gene, E. coli kanamycin selection, DiMSum; sequences stand for … in CUCUCU…GGAGGGAAAAGUUAUCAGGCAUGCACCUGGUAGCUAGUCUUUAAACCAAUAGAUUGCAUCGGUUUAAAAGGCAAGACCGUCAAAUUGCGGGAAAGGGGUCAACAGCCGUUCAGUACCAAGUCUCAGGGGAAACUUUGAGAUGGCCUUGCAAAGGGUAUGGUAAUAAGCUGACGGACAUGGUCCUAACCACGCAGCCAAGUCCUAAGUCAACAGAUCUUCUGUUGAUAUGGAUGCAGUUCACAGACUAAAUGUCGGUCGGGGAAGAUGUAUUCUUCUCAUAAGAUAUAGUCGGACCUCUCCUUAAUGGGAGCUAGCGGAUGAAGUGAUGCAACACUGGAGCCGCUGGGAACUAAUUUGUAUGCGAAAGUAUAUUGAUUAGUUUUGGAGUACUCGUGGUCG
Outline: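 Fitness was computed with DiMSum as the error-weighted combination of replicate fold changes, kanamycin versus none, each normalised to wild type. The library randomised all eight intron nucleotides of the P1ex region, with the intron placed in the knt kanamycin-resistance gene on pET-22b(+) in E. coli BL21(DE3). Six replicate transformations were grown overnight at 37°C or 30°C on LB agar with or without 25 μg/mL kanamycin, plus 100 μg/mL carbenicillin, 50 μM IPTG and 0.2% rhamnose. Pooled colonies were amplicon-sequenced on an Illumina HiSeq 2500.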

| Sequence | self-splicing fitness (ln) (30 °C) | self-splicing fitness (ln) (37 °C) |
| --- | --- | --- |
| GAUCAGCAAUAUUACGCCCA | -0.563 ± 0.2 | -0.558 ± 0.28 |
| GAUCAGCAAUAUUACGCCGC | -2.29 ± 0.44 | -1.19 ± 0.28 |
| GAUCAGCAAUAUUACGCGCG | -0.222 ± 0.14 | 0.0103 ± 0.15 |
| GAUCAGCAAUAUUACGCUGG | -3.48 ± 0.21 | -3.18 ± 0.27 |
| GAUCAGCAAUAUUACGGAAG | -2.38 ± 0.1 | -0.761 ± 0.091 |
| GAUCAGCAAUAUUACGGGUA | -0.0547 ± 0.089 | -0.665 ± 0.086 |
| GAUCAGCAAUAUUACGGUAA | -0.559 ± 0.075 | 0.194 ± 0.07 |
| GAUCAGCAAUAUUACGGUAU | -0.247 ± 0.068 | -0.46 ± 0.078 |
| GAUCAGCAAUAUUACGGUUC | -2.83 ± 0.23 | -0.31 ± 0.14 |
| GAUCAGCAAUAUUACGGUUU | -0.544 ± 0.074 | -0.154 ± 0.098 |
| GAUCAGCAAUAUUACGUACA | -0.607 ± 0.12 | 0.177 ± 0.15 |
| GAUCAGCAAUAUUACGUAGA | -0.569 ± 0.08 | -0.158 ± 0.14 |
| GAUCAGCAAUAUUACGUAUG | -0.935 ± 0.084 | -0.276 ± 0.097 |
| GAUCAGCAAUAUUACGUGAC | -1.62 ± 0.094 | -1.63 ± 0.12 |
| GAUCAGCAAUAUUACGUGCU | -3.41 ± 0.15 | -2.2 ± 0.16 |
| GAUCAGCAAUAUUACGUGGU | -4.81 ± 0.27 | -2.15 ± 0.13 |
| GAUCAGCAAUAUUACGUGUC | -2.74 ± 0.11 | -2.19 ± 0.17 |
| GAUCAGCAAUAUUACGUUAA | -1.23 ± 0.076 | -0.776 ± 0.084 |
| GAUGAGCAAUAUUACGAAUG | -2.71 ± 0.21 | -2.67 ± 0.34 |
| GAUGAGCAAUAUUACGACCA | -3.85 ± 0.35 | -3.8 ± 0.39 |
| GAUGAGCAAUAUUACGCAUC | -2.56 ± 0.25 | -2.32 ± 0.28 |
| GAUGAGCAAUAUUACGCCAU | -2.56 ± 0.14 | – |
| GAUGAGCAAUAUUACGCGUA | -1.96 ± 0.29 | -1.85 ± 0.33 |
| GAUGAGCAAUAUUACGGAUC | -2.36 ± 0.23 | -1.78 ± 0.19 |
| GAUGAGCAAUAUUACGGCUU | -2.34 ± 0.14 | -1.12 ± 0.14 |

| Sequence | self-splicing fitness (ln) (30 °C) | self-splicing fitness (ln) (37 °C) |
| --- | --- | --- |
| GAUGAGCAAUAUUACGGGAC | – | -3.23 ± 0.4 |
| GAUGAGCAAUAUUACGGGGG | -4.46 ± 0.34 | -1.44 ± 0.25 |
| GAUGAGCAAUAUUACGUAUU | -3.83 ± 0.34 | -3.78 ± 0.36 |
| GAUUAGCAAUAUUACGAAUC | -4.13 ± 0.37 | -1.82 ± 0.31 |
| GAUUAGCAAUAUUACGACCC | -0.91 ± 0.24 | 0.12 ± 0.24 |
| GAUUAGCAAUAUUACGAGCC | -0.73 ± 0.31 | -1.4 ± 0.38 |
| GAUUAGCAAUAUUACGAUCU | -0.776 ± 0.2 | -2.2 ± 0.38 |
| GAUUAGCAAUAUUACGCAAA | -2.19 ± 0.18 | -2.24 ± 0.19 |
| GAUUAGCAAUAUUACGCCCC | -1.52 ± 0.46 | -0.314 ± 0.48 |
| GAUUAGCAAUAUUACGCCGC | -3.47 ± 0.24 | -2.28 ± 0.21 |
| GAUUAGCAAUAUUACGCCGG | -2.88 ± 0.45 | -1.96 ± 0.41 |
| GAUUAGCAAUAUUACGCGGG | -2.31 ± 0.12 | -2.53 ± 0.18 |
| GAUUAGCAAUAUUACGCGGU | -3.5 ± 0.47 | -3.43 ± 0.33 |
| GAUUAGCAAUAUUACGCGUG | -1.23 ± 0.091 | 0.595 ± 0.11 |
| GAUUAGCAAUAUUACGCUAG | -1.95 ± 0.17 | -0.989 ± 0.15 |
| GAUUAGCAAUAUUACGCUAU | -2.97 ± 0.41 | – |
| GAUUAGCAAUAUUACGCUGA | -3.17 ± 0.23 | -2.53 ± 0.27 |
| GAUUAGCAAUAUUACGCUGG | -1.73 ± 0.14 | -1.68 ± 0.22 |
| GAUUAGCAAUAUUACGCUUU | -2.1 ± 0.46 | -1.9 ± 0.33 |
| GAUUAGCAAUAUUACGUAAU | -3.06 ± 0.18 | -0.741 ± 0.12 |
| GAUUAGCAAUAUUACGUAUC | – | -2.77 ± 0.36 |
| GAUUAGCAAUAUUACGUCAU | -2.76 ± 0.24 | -1.79 ± 0.36 |
| GAUUAGCAAUAUUACGUGGG | -3.52 ± 0.32 | -2.47 ± 0.27 |
| GAUUAGCAAUAUUACGUUUA | -2.9 ± 0.25 | -1.05 ± 0.15 |
| GCAAAGCAAUAUUACGACGC | -1.27 ± 0.082 | -1.2 ± 0.11 |

| Sequence | self-splicing fitness (ln) (30 °C) | self-splicing fitness (ln) (37 °C) |
| --- | --- | --- |
| GCAAAGCAAUAUUACGAGGC | -3.55 ± 0.34 | -2.77 ± 0.4 |
| GCAAAGCAAUAUUACGAGUU | -2.47 ± 0.11 | -0.891 ± 0.093 |
| GCAAAGCAAUAUUACGAUAA | -1.48 ± 0.086 | -1.14 ± 0.1 |
| GCAAAGCAAUAUUACGCAUA | -1.86 ± 0.14 | -1.43 ± 0.18 |
| GCAAAGCAAUAUUACGCCCG | -1.23 ± 0.22 | -2.06 ± 0.38 |
| GCAAAGCAAUAUUACGCCGG | -2.44 ± 0.17 | -1.71 ± 0.2 |
| GCAAAGCAAUAUUACGCCUU | -2.55 ± 0.23 | -1.04 ± 0.21 |
| GCAAAGCAAUAUUACGCGGC | -3.95 ± 0.21 | -2.43 ± 0.19 |
| GCAAAGCAAUAUUACGCUAU | -2.57 ± 0.23 | -1.06 ± 0.17 |
| GCAAAGCAAUAUUACGCUCC | -3.61 ± 0.34 | -3.03 ± 0.43 |
| GCAAAGCAAUAUUACGGAGC | -3.91 ± 0.34 | -2.07 ± 0.19 |
| GCAAAGCAAUAUUACGGAUU | -0.922 ± 0.067 | -0.799 ± 0.1 |
| GCAAAGCAAUAUUACGGCUC | -0.596 ± 0.062 | 0.305 ± 0.081 |
| GCAAAGCAAUAUUACGGGCA | -1.3 ± 0.085 | -0.907 ± 0.079 |
| GCAAAGCAAUAUUACGGGCC | -2.74 ± 0.13 | -2.03 ± 0.21 |
| GCAAAGCAAUAUUACGUACC | -0.781 ± 0.081 | -0.64 ± 0.12 |
| GCAAAGCAAUAUUACGUAUA | -1.65 ± 0.19 | -1.48 ± 0.19 |
| GCAAAGCAAUAUUACGUCAC | -3.96 ± 0.23 | -2.56 ± 0.44 |
| GCAAAGCAAUAUUACGUCGU | -2.22 ± 0.095 | -2.27 ± 0.15 |
| GCAAAGCAAUAUUACGUUUC | -4.41 ± 0.28 | -3.44 ± 0.23 |
| GCACAGCAAUAUUACGAAAU | -1.63 ± 0.099 | -0.818 ± 0.11 |
| GCACAGCAAUAUUACGAAGU | -1.3 ± 0.11 | -0.941 ± 0.14 |
| GCACAGCAAUAUUACGAAUA | -1.42 ± 0.13 | -1.09 ± 0.16 |
| GCACAGCAAUAUUACGAGAU | -1.99 ± 0.088 | -0.678 ± 0.081 |
| GCACAGCAAUAUUACGCCGA | -2.19 ± 0.22 | -1.61 ± 0.17 |

| Sequence | self-splicing fitness (ln) (30 °C) | self-splicing fitness (ln) (37 °C) |
| --- | --- | --- |
| GCACAGCAAUAUUACGCGUG | -3.87 ± 0.2 | -2.35 ± 0.18 |
| GCACAGCAAUAUUACGCUAU | -1.98 ± 0.08 | -0.752 ± 0.086 |
| GCACAGCAAUAUUACGGAAG | -3.04 ± 0.13 | -2.11 ± 0.13 |
| GCACAGCAAUAUUACGGCCG | -2.48 ± 0.17 | -1.75 ± 0.18 |
| GCACAGCAAUAUUACGGGAC | -1.04 ± 0.068 | -1.35 ± 0.098 |
| GCACAGCAAUAUUACGGGAG | -1.96 ± 0.1 | -1.47 ± 0.12 |
| GCACAGCAAUAUUACGGUUU | -0.633 ± 0.047 | 0.145 ± 0.057 |
| GCACAGCAAUAUUACGUACA | -2.07 ± 0.1 | -0.994 ± 0.1 |
| GCACAGCAAUAUUACGUGCU | -3.6 ± 0.1 | -2.75 ± 0.12 |
| GCAGAGCAAUAUUACGAAGG | -4.31 ± 0.46 | -1.42 ± 0.26 |
| GCAGAGCAAUAUUACGAUGA | -1.42 ± 0.14 | -1.07 ± 0.12 |
| GCAGAGCAAUAUUACGAUGG | -1.98 ± 0.098 | -1.65 ± 0.12 |
| GCAGAGCAAUAUUACGCCGU | -1.7 ± 0.15 | -2.65 ± 0.41 |
| GCAGAGCAAUAUUACGCGCG | -2.8 ± 0.17 | -1.49 ± 0.14 |
| GCAGAGCAAUAUUACGCGCU | – | -2.13 ± 0.35 |
| GCAGAGCAAUAUUACGCGGG | -3.58 ± 0.39 | -2.24 ± 0.28 |
| GCAGAGCAAUAUUACGCGUU | -1.48 ± 0.11 | -2.09 ± 0.16 |
| GCAGAGCAAUAUUACGGAAC | – | -0.993 ± 0.17 |
| GCAGAGCAAUAUUACGGCUC | -2.69 ± 0.37 | -1.99 ± 0.46 |
| GCAGAGCAAUAUUACGGGUA | -3.16 ± 0.18 | -3.68 ± 0.33 |
| GCAGAGCAAUAUUACGGUUA | -2.95 ± 0.17 | -2.17 ± 0.16 |
| GCAGAGCAAUAUUACGUAAG | -1.79 ± 0.16 | -1.88 ± 0.23 |
